The text below walks through data of patent US11219645B2, “Tumor infiltrating lymphocytes for treatment of cancer” (Duke University, priority 2015, dated 2022).

The conditions of data set [1]: cancer patients; cited from earlier work.
Data set [2] concerns activated CD8+ T cells. As to the kind of experiment: C3aR and C5aR antagonists in vitro blockade, IL-10 intracellular staining. The note with it: 10 μmol/L of each antagonist, 6 days; FIG. 6J. Format: cell-based, mouse. The method, then: C3aR and C5aR Antagonists In Vitro Blockade: Mouse CD8+ T cells from lymph nodes were enriched using a negative selection kit (Stemcell Technologies; Cat #19853) and activated by plate-bound anti-CD3 (2 μg/mL) and anti-CD28 (1 μg/mL) antibodies for 72 hours. The activated CD8+ T cells were then cultured in complete medium alone (control), 10 μmol/L SB290157 (C3aR antagonist, C3aRA), 10 μmol/L PMX205 (C5aR antagonist, C5aRA), or a combination of 10 μmol/L SB290157 and 10 μmol/L PMX205 for 6 days. The IL10 expression was determined by intracellular staining.

For data set [3], the system named is mouse CD4+ T cells. Description: Impact of IL-10 on effector cytokine production in mouse CD4+ T cells. Conditions: 100 U/ml rIL-2 plus 500 U/ml rIL-10 versus rIL-2, 48 hrs; FIG. 9E. It counts as cell-based. The method, then: (§1) B16F10 melanoma cells (2×10^5/mouse) were subcutaneously inoculated into WT and C3−/− mice. The draining lymph nodes and tumors were dissected and treated with collagenase and DNase to obtain single cell suspensions. Leukocytes were pre-gated on CD45 positive cells. FIG. 9A show the CD11b and GR1expression in leukocytes from dLNs as analyzed by flow cytometry. […] WT and C3−/− mice were subcutaneously inoculated with B16F10 cells (2×10^5/mouse). IFNγ- and TNFα-producing CD4+ TILs were analyzed by flow cytometry (n=4 mice per group) at day 12 after tumor inoculation. […] CD4+ T cells were enriched from PBMCs of healthy donors and activated by anti-CD3/CD28 antibodies in vitro for 48 hrs. The activated CD4+ T cells were then cultured with 100 U/ml rIL-2 or 100 U/ml rIL-2 plus 500 U/ml rIL-10 for 48 hrs. The cells were activated using a Cell Activation Cocktail (Biolegend) for 6 hours before intracellular IFNγ and TNFα staining. The expression of IFNγ and TNFα was analyzed by flow cytometry (n=3). […] Mouse CD4+ T cells were enriched from the spleens of naïve mice using a negative selection kit and activated by anti-CD3/CD28 antibodies for 48 hours in vitro. The activated CD4+ T cells were then cultured with 100 U/ml rIL-2 or 100 U/ml rIL-2 plus 500 U/ml rIL-10 for 48 hrs. […] The expression of IFNγ and TNFα was analyzed by flow cytometry (n=3). […]

Data set [4] concerns activated CD8+ T cells. As to the kind of experiment: PD-1 expression on CD8+ T cells activated with anti-CD3/CD28 in the presence of IL-10. Format: cell-based, mouse. Conditions: 500 U/mL IL-10, 48 hours, 3 μg/mL anti-CD3/CD28; FIG. 7B. Here is the method:
(§2) B16F10 melanoma cells (2×10^5/mouse) were subcutaneously inoculated into wild-type (WT) and C3−/− mice. […] T cells from lymph nodes of naïve mice were activated by incubation with 3 μg/mL anti-CD3/CD28 antibodies for 48 hours with or without 500 U/mL IL-10 and analyzed for PD-1 expression. FIGS. 7C-D show PD-L1 expression on tumor cells developed in WT and C3−/− mice. Bl6F10 melanoma cells (2×10^5/mouse) or E0771 breast cancer cells (1×10^6/mouse) were subcutaneously inoculated into WT and C3−/− mice. PD-L1 expression in CD45-B16 tumor cells (FIG. 7C) and CD45-E0771 cells (FIG. 7D) was measured by flow cytometry at day 12 and day 19, respectively. […] B16F10 cells were cultured with or without 500 U/mL IL-10 for 5 days. PD-L1 expression was analyzed by flow cytometry. […] B16F10 cells were transduced with control virus or single-guide RNA (sgRNA)—targeting PD-L1 virus and selected with puromycin to generate a stable PD-L1-silenced polyclonal cell line. […] Control or PD-L1-silenced B16F10 melanoma cells (4×10^5/mouse) were subcutaneously inoculated into C3−/− and C3−/− Tiger mice. GFP expression in CD3+CD8+ TILs was analyzed by flow cytometry. […] Tumor development was monitored every day starting from day 7 after implantation (n=7, 7, 9, and 8 mice, respectively). […] Significance was determined in FIG. 7H and FIG. 7I by Student t test.*, P≤0.05; **, P≤0.01.

Data set [5] concerns Human TILs from lung cancer patients. Description: T cell exhaustion markers on CD8+ TILs after IL-10 culture, flow cytometry. It counts as cell-based. Conditions: IL-2 plus IL-10 versus IL-2, 21 days culture; FIG. 10. The method, then:
T cells were activated by anti-CD3/CD28 antibodies for 24 hrs. The surface expression of PD-1, LAG-3 and TIM-3 was analyzed by flow cytometry. FACS profiles are representative of three patients.

The subject of data set [6] is TILs from human lung tumors. Description: In vitro expansion of human TILs cultured with IL-2 and/or IL-10. The note with it: FIG. 5A. Format: cell-based. Here is the method:
(§3) The plates were placed in a humidified 37° C. incubator with 5% CO2.
as §3

The subject of data set [7] is CD8+ TILs from human lung tumors. As to the kind of experiment: mRNA expression profiling (microarray) of expanded CD8+ TILs. Format: cell-based. The note with it: IL-10/IL-2-cultured versus IL-2-cultured CD8+ TILs. Here is the method: Microarray Data Analysis: TILs from human lung tumors were in vitro—expanded for 20 days with 6,000 U/mL rIL2 and/or 100 U/mL rIL10. The expanded TILs were activated by incubation in 3 μg/mL anti-CD3/CD28 antibodies for 6 hours. The CD8+ TILs were enriched by negative selection using a kit (Stemcell Technologies). RNA was extracted using TRIzol reagent (Life Technologies) according to the instructions. Microarray analyses were performed using human U133A 2.0 arrays by the Duke University microarray facility. Raw intensities from the CEL files were analyzed using PartekGenomics Suite (Partek Incorporated) with standard background correction to generate an RMA (robust multiarray average intensity) on a log 2 scale for each probe set. Probe sets were filtered for “present” detection in two or more arrays, and the interquartile intensity range was >0.5. The filtered RMA intensities were then analyzed for differential expression using the advanced ANOVA, and differentially expressed genes were generated with/without FDR-adjusted P values using the Benjamini-Hochberg method.

In data set [8] the test system is human CD4+ T cells. As to the kind of experiment: Impact of IL-10 on effector cytokine production in human CD4+ T cells. It counts as cell-based. Conditions: 100 U/ml rIL-2 plus 500 U/ml rIL-10 versus rIL-2, 48 hrs; FIG. 9D. Here is the method:
as §1

Data set [9] has as its system B16F10 cells. As to the kind of experiment: PD-L1 expression in tumor cells after IL-10 stimulation. Format: cell-based, mouse. Conditions: 500 U/mL IL-10 for 5 days; FIG. 7E. The method, then: as §2

In the case of “Pegylated IL-10: Pegylated IL-10 given to cancer patients”, the adverse effect profile entry in [1] was “manageable adverse effect profile”.

In the case of `NC(N)=NCCC[C@H](NC(=O)COCC(c1ccccc1)c1ccccc1)C(=O)O` [SB 290157], in [2], the “IL-10 expression in activated CD8+ T cells” value is on record as “slightly increased IL-10 expression”.

As for “hydrocinnamate-(L-ornithine-proline-D-cyclohexylalanine-tryptophan-arginine) [PMX205]”, the “IL-10 expression in activated CD8+ T cells” value in data set [2] is recorded as “slightly increased IL-10 expression”.

B1: IL-10: a cytokine with multiple, pleotropic effects in immunoregulation and inflammation (protein, UniProt P22301 19-178, looked up)
Interleukin-10: SPGQGTQSENSCTHFPGNLPNMLRDLRDAFSRVKTFFQMKDQLDNLLLKESLLEDFKGYLGCQALSEMIQFYLEEVMPQAENQDPDIKAHVNSLGENLKTLRLRLRRCHRFLPCENKSKAVEQVKNAFNKLQEKGIYKAMSEFDIFINYIEAYMTMKIRN
B1: the “effector status (IFNγ and TNFα) of mouse CD4+ T cells” value in [3] was “did not obviously alter the effector status”. For the same molecule, the “PD-1 expression on activated CD8+ T cells” value in data set [4] is reported as “did not modulate PD-1 expression”. For the same molecule, in data set [5], the “expression of T-cell exhaustion markers (PD-1, LAG3, TIM3)” value is “not altered”. Also, in data set [6] (IL-10 added with IL-2: 6,000 U/mL rIL-2 plus 100 U/mL rIL-10, TILs from patients with lung cancer), the “proliferative capacity of TILs” value is “robustly enhanced the proliferative capacity of TILs”. In data set [6] (IL-10 alone, 100 U/mL rIL-10), the “proliferative capacity of TILs (entry into the cell cycle)” value is reported as “did not drive TILs into the cell cycle”. In addition, the “expression of genes of signaling pathways (TCR signaling, Notch signaling, cell cycle, killing activity)” value in data set [7] (20 days, FIG. 5F-I) is “upregulated genes related to several signaling pathways”. The “expression of chemokine genes” value in data set [7] (FIG. 5J) is recorded as “variable depending on the specific chemokine”. Also, the “effector status (IFNγ and TNFα) of human CD4+ T cells” value in data set [8] is “did not obviously alter the effector status”. For the same molecule, the “PD-L1 expression on tumor cells” value in data set [9] is listed as “not changed”.
